Laboratory results published in publication PMC11537708.

Legend:
[1] = molecular target: human full-length CD45 extracellular domain (ECD) isoform RABC (human) (UniProt P08575); assay: cryo-EM structure; fully glycosylated human CD45 ECD bound to E3/49K, purified by size exclusion chromatography; 0.01% FOM; 3.8-Å nominal resolution map
[2] = molecular target: human full-length CD45 extracellular domain (ECD) isoform RABC (human) (UniProt P08575); assay: SPR; GE Biacore T100; about 200 RU of human CD45 ECD, E3/49K immobilised on an SA-chip, reference channel with an unrelated protein; HBS-P+; twofold serial dilutions, 30 s association, 30 ul/min, 25 °C

Sequence of UniProt P08575 (P08575 26-577): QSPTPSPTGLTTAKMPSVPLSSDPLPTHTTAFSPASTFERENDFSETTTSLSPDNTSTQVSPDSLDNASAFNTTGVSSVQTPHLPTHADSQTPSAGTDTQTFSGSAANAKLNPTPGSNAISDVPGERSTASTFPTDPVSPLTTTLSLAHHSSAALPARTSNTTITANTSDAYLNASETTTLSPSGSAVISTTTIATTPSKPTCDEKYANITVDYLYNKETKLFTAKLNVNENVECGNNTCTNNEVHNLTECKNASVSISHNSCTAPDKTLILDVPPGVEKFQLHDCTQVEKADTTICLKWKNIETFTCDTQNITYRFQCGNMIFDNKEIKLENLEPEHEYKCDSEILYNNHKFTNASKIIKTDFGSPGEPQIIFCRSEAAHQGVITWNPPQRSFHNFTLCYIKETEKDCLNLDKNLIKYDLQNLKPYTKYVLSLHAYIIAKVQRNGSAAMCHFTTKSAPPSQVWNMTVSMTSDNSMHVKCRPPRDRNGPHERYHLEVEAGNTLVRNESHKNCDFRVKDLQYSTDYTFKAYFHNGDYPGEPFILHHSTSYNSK

Substance | stoichiometry N (CD45 per E3/49K) [1] | Kd [2] [nM] | koff [2] [s⁻¹] | kon [2] [M⁻¹ s⁻¹]
adenoviral D19a strain E3/49K ECD (domain or fragment) | 2 | 0.3 | 0.000598 | 2.08e+06
E3/49K R2 domain (domain or fragment) | – | 145 | – | –
E3/49K R1 domain (domain or fragment) | – | 74 | – | –
